In the supplement of paper PMC9876800:

System: peptide library, one residue held at a place counted from the S/T acceptor
Test: relative phosphorylation of the sub-library (ratio to the mean residue at this position); human; higher = residue favoured
How it was run: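 In 384-well plates, purified recombinant kinases (human or orthologue constructs) were incubated for 90 min under kinase-specific conditions with 50 μM biotinylated degenerate peptide sub-libraries and 50 μM ATP spiked with γ-32P-ATP. Each sub-library fixed a single residue at one position around a central Ser/Thr. Relative sub-library phosphorylation, measured by phosphorimaging and densitometry of streptavidin membrane spots, is given as a ratio to the mean residue at that position.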

TTBK1, construct: Full length, sequence (Q5TCY1 whole entry, looked up): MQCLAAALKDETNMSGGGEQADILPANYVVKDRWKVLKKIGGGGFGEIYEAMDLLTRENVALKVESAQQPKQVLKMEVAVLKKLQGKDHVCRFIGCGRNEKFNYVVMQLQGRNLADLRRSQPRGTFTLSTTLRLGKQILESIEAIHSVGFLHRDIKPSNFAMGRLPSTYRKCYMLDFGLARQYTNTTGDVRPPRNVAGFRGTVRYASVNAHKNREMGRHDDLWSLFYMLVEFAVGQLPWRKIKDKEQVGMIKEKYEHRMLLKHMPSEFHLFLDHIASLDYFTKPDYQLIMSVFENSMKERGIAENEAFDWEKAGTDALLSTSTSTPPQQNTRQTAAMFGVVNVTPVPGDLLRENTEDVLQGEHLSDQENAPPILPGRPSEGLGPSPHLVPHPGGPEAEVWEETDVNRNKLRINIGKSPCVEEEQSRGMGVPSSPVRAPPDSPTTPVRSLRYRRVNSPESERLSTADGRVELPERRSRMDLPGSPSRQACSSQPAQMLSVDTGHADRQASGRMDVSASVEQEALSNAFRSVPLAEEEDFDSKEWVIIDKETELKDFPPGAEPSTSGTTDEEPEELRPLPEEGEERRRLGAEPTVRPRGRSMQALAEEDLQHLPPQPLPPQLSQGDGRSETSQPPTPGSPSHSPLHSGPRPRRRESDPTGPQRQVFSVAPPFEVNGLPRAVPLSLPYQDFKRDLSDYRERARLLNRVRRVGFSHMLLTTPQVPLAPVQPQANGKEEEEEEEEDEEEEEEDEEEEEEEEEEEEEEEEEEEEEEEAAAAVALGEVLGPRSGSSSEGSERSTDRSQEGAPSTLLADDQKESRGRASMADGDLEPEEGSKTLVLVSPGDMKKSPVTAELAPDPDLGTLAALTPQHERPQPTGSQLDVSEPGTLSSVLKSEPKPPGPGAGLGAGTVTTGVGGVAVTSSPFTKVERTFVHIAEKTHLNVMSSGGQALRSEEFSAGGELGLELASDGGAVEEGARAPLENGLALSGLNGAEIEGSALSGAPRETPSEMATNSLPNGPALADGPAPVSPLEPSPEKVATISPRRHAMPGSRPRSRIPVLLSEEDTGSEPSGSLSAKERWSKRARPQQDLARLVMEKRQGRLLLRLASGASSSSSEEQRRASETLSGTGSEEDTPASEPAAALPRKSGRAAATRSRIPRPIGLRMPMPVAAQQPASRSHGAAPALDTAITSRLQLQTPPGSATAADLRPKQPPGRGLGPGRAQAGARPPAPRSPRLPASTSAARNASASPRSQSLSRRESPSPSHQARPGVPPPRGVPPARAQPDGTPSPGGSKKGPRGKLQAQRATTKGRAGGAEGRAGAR
TTK, construct: Full length, sequence (P33981 whole entry, looked up): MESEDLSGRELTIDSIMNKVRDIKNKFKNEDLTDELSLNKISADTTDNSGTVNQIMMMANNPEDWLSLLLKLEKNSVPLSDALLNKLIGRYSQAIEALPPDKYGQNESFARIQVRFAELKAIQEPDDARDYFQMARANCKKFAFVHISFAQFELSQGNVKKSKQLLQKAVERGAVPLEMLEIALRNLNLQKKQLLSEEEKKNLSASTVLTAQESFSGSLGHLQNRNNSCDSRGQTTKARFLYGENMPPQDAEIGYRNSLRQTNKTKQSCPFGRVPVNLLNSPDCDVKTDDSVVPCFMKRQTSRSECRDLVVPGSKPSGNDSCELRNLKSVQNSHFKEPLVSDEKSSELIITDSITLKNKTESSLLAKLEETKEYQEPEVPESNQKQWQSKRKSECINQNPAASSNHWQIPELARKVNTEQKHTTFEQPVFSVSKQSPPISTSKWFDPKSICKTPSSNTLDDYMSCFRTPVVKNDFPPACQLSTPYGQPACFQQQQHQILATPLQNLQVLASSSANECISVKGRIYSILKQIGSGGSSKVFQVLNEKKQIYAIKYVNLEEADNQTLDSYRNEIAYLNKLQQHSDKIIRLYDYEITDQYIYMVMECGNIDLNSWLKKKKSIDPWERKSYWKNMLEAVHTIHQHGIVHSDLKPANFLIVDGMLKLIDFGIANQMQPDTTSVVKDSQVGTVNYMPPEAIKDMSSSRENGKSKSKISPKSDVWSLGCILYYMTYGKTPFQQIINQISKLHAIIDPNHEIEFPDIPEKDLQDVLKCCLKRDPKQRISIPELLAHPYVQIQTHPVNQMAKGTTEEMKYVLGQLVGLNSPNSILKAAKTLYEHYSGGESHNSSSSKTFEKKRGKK

TTBK1, construct: Full length (from UniProt Q5TCY1)
relative phosphorylation
Conditions | at +1 | at +2 | at +3 | at +4 | at -1 | at -2 | at -3 | at -4 | at -5
A fixed | 0.474 | 1.63 | 0.964 | 0.817 | 0.663 | 0.79 | 0.94 | 0.821 | 0.856
D fixed | 0.168 | 0.192 | 0.85 | 0.83 | 0.452 | 1.46 | 1.23 | 1.03 | 0.844
E fixed | 0.626 | 0.168 | 1.35 | 0.735 | 0.391 | 1.14 | 0.832 | 0.75 | 0.582
F fixed | 2.09 | 1.42 | 1.49 | 1.32 | 1.99 | 1.06 | 1.43 | 1.33 | 1.78
G fixed | 0.183 | 0.441 | 0.998 | 0.874 | 0.355 | 0.662 | 0.918 | 0.815 | 0.877
H fixed | 0.657 | 1.1 | 0.867 | 0.931 | 0.834 | 0.749 | 0.903 | 0.951 | 0.747
I fixed | 2.66 | 1.23 | 1.54 | 0.714 | 1.67 | 1.02 | 1.56 | 1.24 | 1.19
K fixed | 0.517 | 1.04 | 0.514 | 1.1 | 1.28 | 0.64 | 0.66 | 0.957 | 1.08
L fixed | 1.76 | 0.965 | 1.15 | 0.965 | 1.7 | 2.09 | 1.24 | 1.07 | 0.95
M fixed | 1.5 | 1.31 | 1.29 | 0.855 | 1.08 | 1.23 | 1.04 | 0.933 | 0.79
N fixed | 0.221 | 0.394 | 0.472 | 0.8 | 0.562 | 0.773 | 0.666 | 0.683 | 0.626
P fixed | 0.0712 | 0.231 | 0.421 | 1.23 | 0.589 | 1.04 | 0.649 | 0.687 | 0.7
Q fixed | 0.749 | 0.493 | 0.595 | 0.928 | 0.675 | 0.849 | 0.801 | 0.674 | 0.773
R fixed | 0.789 | 1.42 | 0.641 | 1.41 | 1.23 | 0.934 | 0.888 | 1.06 | 1.22
V fixed | 1.84 | 1.18 | 1.35 | 0.728 | 1.4 | 1.04 | 1.02 | 1.22 | 1.17
W fixed | 1.38 | 2.24 | 1.19 | 1.75 | 1.11 | 0.808 | 1.16 | 1.54 | 1.35
Y fixed | 1.31 | 1.57 | 1.32 | 1.01 | 1.03 | 0.721 | 1.08 | 1.23 | 1.47
pThr fixed | 0.403 | 0.521 | 0.836 | 1.01 | 0.51 | 2.02 | 1.57 | 1.28 | 1.03
pTyr fixed | 1.48 | 12.4 | 1.22 | 0.697 | 0.613 | 2.31 | 2.58 | 1.76 | 1.35

TTK, construct: Full length (from UniProt P33981)
relative phosphorylation
Conditions | at +1 | at +2 | at +3 | at +4 | at -1 | at -2 | at -3 | at -4 | at -5
A fixed | 0.968 | 0.742 | 0.497 | 0.739 | 0.798 | 0.532 | 0.845 | 0.952 | 0.97
D fixed | 0.397 | 0.389 | 0.331 | 0.48 | 1.22 | 4.68 | 2.19 | 1.55 | 1.15
E fixed | 0.883 | 0.339 | 0.26 | 0.39 | 0.866 | 2.91 | 1.94 | 1.47 | 0.983
F fixed | 0.541 | 0.748 | 1.48 | 0.895 | 0.671 | 0.373 | 0.55 | 0.76 | 0.791
G fixed | 1.18 | 0.501 | 0.552 | 1.15 | 0.568 | 0.922 | 1.32 | 1.24 | 1.26
H fixed | 0.952 | 1.44 | 0.97 | 1.42 | 1.78 | 0.675 | 1.18 | 1.05 | 1.25
I fixed | 1.29 | 0.784 | 1.89 | 0.746 | 0.696 | 0.294 | 0.419 | 0.51 | 0.604
K fixed | 1.28 | 1.61 | 0.956 | 1.76 | 1.26 | 0.456 | 0.966 | 1.02 | 1.1
L fixed | 1.02 | 0.802 | 2.26 | 0.738 | 0.849 | 0.336 | 0.537 | 0.694 | 0.757
M fixed | 1.49 | 1.02 | 1.29 | 0.868 | 0.905 | 0.453 | 0.651 | 0.865 | 0.884
N fixed | 0.685 | 1.29 | 0.723 | 1.28 | 1.47 | 1.82 | 1.29 | 1.22 | 1.1
P fixed | 0.275 | 0.773 | 0.532 | 0.823 | 0.891 | 0.504 | 0.959 | 0.984 | 1.39
Q fixed | 1.71 | 0.974 | 0.748 | 1.1 | 1.16 | 0.873 | 0.975 | 0.981 | 0.857
R fixed | 1.51 | 1.91 | 1.01 | 1.64 | 1.15 | 0.854 | 1.29 | 1.16 | 1.09
V fixed | 1.45 | 0.963 | 1.23 | 0.651 | 0.837 | 0.337 | 0.487 | 0.675 | 0.784
W fixed | 0.704 | 1.75 | 1.29 | 1.21 | 0.766 | 0.529 | 0.66 | 0.964 | 0.984
Y fixed | 0.659 | 0.971 | 0.984 | 1.12 | 1.12 | 0.453 | 0.734 | 0.899 | 1.04
pThr fixed | 0.734 | 0.393 | 0.576 | 0.455 | 0.7 | 1.12 | 1.75 | 1.37 | 1.41
pTyr fixed | 0.362 | 0.27 | 0.696 | 0.45 | 0.787 | 0.765 | 0.997 | 0.781 | 1.47
